According to publication PMC6254359, “A helical LC3-interacting region mediates the interaction between the retroviral restriction factor Trim5α and mammalian autophagy-related ATG8 proteins” (The Journal of Biological Chemistry, 2018):

Columns and labels:
GABARAPL1 = target: T1, GABARAPL1 (UniProt Q9H0R8 1-117); assay: AUC; sedimentation velocity, 20 μM RhT5 88–296 EK/RD with 0–320 μM LC3B or GABARAPL1; S value of the fast peak against concentration, one-site binding model; 20 °C; 10 mM Tris/HCl pH 8, 150 mM NaCl, 0.1 mM TCEP; settings: both partners purified
T1 construct: also called mATG8 isoform GABARAPL1

[1] = target: the molecule itself; assay: AUC; sedimentation velocity, c(s) analysis of each protein alone at 20 μM; 20 °C; 10 mM Tris/HCl pH 8, 150 mM NaCl, 0.1 mM TCEP
LC3B I23R = LC3B I23R (UniProt Q9GZQ8 2-119, Ile23 to arginine); assay: AUC; sedimentation velocity, c(s) analysis of equimolar mixtures, 20 μM each; 20 °C, 50,000 rpm; 10 mM Tris/HCl pH 8, 150 mM NaCl, 0.1 mM TCEP; shift of the fast-moving peak; settings: both partners purified
LC3B H27A = LC3B H27A (UniProt Q9GZQ8 2-119, His27 to alanine); assay: as above; settings: both partners purified
[2] = target: the molecule itself; assay: SEC-MALS + AUC; Trim5α mutants alone; SEC–MALLS on Superdex 75 Increase 10/300 in 10 mM Tris/HCl pH 7.8, 150 mM NaCl, 0.1 mM TCEP, 3 mM azide, and c(s) analysis of sedimentation velocity
[3] = target: autophagy-related protein LC3 B (LC3B), construct 2–119 (UniProt Q9GZQ8 2-119); assay: AUC; sedimentation velocity, c(s) analysis of equimolar mixtures, 20 μM each; 20 °C, 50,000 rpm; 10 mM Tris/HCl pH 8, 150 mM NaCl, 0.1 mM TCEP; shift of the fast-moving peak; settings: both partners purified

| Binder | binding result [3] | stoichiometry N [2] | also measured |
| --- | --- | --- | --- |
| Trim5α from Rhesus macaque, Bbox coiled-coil regions, residues 88–296 with the E120K/R121D mutation (domain or fragment, UniProt Q0PF16 88-296, looked up) PEEGQKVDHCARHGEKLLLFCQEDSKVICWLCKDSQEHRGHHTFLMEEVAQEYHVKLQTALEMLRQKQQEAEKLEADIREEKASWKIQIDYDKTNVSADFEQLREILDWEESNELQNLEKEEEDILKSLTKSETEMVQQTQYMRELISELEHRLQGSMMDLLQGVDGIIKRIENMTLKKPKTFHKNQRRVFRAPDLKGMLDMFRELTDA |  |  | Kd (GABARAPL1): 78 ± 6 µM; stoichiometry N [1]: 2; binding result (LC3B I23R): binds; binding result (LC3B H27A): binds |
| W196A RhT5 88–296 EK/RD (domain or fragment, Rhesus macaque, UniProt Q0PF16 88-296, looked up) PEEGQKVDHCARHGEKLLLFCQEDSKVICWLCKDSQEHRGHHTFLMEEVAQEYHVKLQTALEMLRQKQQEAEKLEADIREEKASWKIQIDYDKTNVSADFEQLREILDAEESNELQNLEKEEEDILKSLTKSETEMVQQTQYMRELISELEHRLQGSMMDLLQGVDGIIKRIENMTLKKPKTFHKNQRRVFRAPDLKGMLDMFRELTDA |  | 2 |  |
| RhT5 88–296 EK/RD E198K (domain or fragment, Rhesus macaque, UniProt Q0PF16 88-296, looked up) PEEGQKVDHCARHGEKLLLFCQEDSKVICWLCKDSQEHRGHHTFLMEEVAQEYHVKLQTALEMLRQKQQEAEKLEADIREEKASWKIQIDYDKTNVSADFEQLREILDWEKSNELQNLEKEEEDILKSLTKSETEMVQQTQYMRELISELEHRLQGSMMDLLQGVDGIIKRIENMTLKKPKTFHKNQRRVFRAPDLKGMLDMFRELTDA | binds | 2 |  |
| RhT5 88–296 EK/RD E206K (domain or fragment, Rhesus macaque, UniProt Q0PF16 88-296, looked up) PEEGQKVDHCARHGEKLLLFCQEDSKVICWLCKDSQEHRGHHTFLMEEVAQEYHVKLQTALEMLRQKQQEAEKLEADIREEKASWKIQIDYDKTNVSADFEQLREILDWEESNELQNLKKEEEDILKSLTKSETEMVQQTQYMRELISELEHRLQGSMMDLLQGVDGIIKRIENMTLKKPKTFHKNQRRVFRAPDLKGMLDMFRELTDA |  | 2 |  |
| RhT5 88–296 EK/RD E206A (domain or fragment, Rhesus macaque, UniProt Q0PF16 88-296, looked up) PEEGQKVDHCARHGEKLLLFCQEDSKVICWLCKDSQEHRGHHTFLMEEVAQEYHVKLQTALEMLRQKQQEAEKLEADIREEKASWKIQIDYDKTNVSADFEQLREILDWEESNELQNLAKEEEDILKSLTKSETEMVQQTQYMRELISELEHRLQGSMMDLLQGVDGIIKRIENMTLKKPKTFHKNQRRVFRAPDLKGMLDMFRELTDA |  | 2 |  |
| RhT5 88–296 EK/RD E192A (domain or fragment, Rhesus macaque, UniProt Q0PF16 88-296, looked up) PEEGQKVDHCARHGEKLLLFCQEDSKVICWLCKDSQEHRGHHTFLMEEVAQEYHVKLQTALEMLRQKQQEAEKLEADIREEKASWKIQIDYDKTNVSADFEQLRAILDWEESNELQNLEKEEEDILKSLTKSETEMVQQTQYMRELISELEHRLQGSMMDLLQGVDGIIKRIENMTLKKPKTFHKNQRRVFRAPDLKGMLDMFRELTDA |  | 2 |  |
| RhT5 88–296 EK/RD E197A (domain or fragment, Rhesus macaque, UniProt Q0PF16 88-296, looked up) PEEGQKVDHCARHGEKLLLFCQEDSKVICWLCKDSQEHRGHHTFLMEEVAQEYHVKLQTALEMLRQKQQEAEKLEADIREEKASWKIQIDYDKTNVSADFEQLREILDWAESNELQNLEKEEEDILKSLTKSETEMVQQTQYMRELISELEHRLQGSMMDLLQGVDGIIKRIENMTLKKPKTFHKNQRRVFRAPDLKGMLDMFRELTDA | binds | 2 |  |
| RhT5 88–296 EK/RD E192K (domain or fragment, Rhesus macaque, UniProt Q0PF16 88-296, looked up) PEEGQKVDHCARHGEKLLLFCQEDSKVICWLCKDSQEHRGHHTFLMEEVAQEYHVKLQTALEMLRQKQQEAEKLEADIREEKASWKIQIDYDKTNVSADFEQLRKILDWEESNELQNLEKEEEDILKSLTKSETEMVQQTQYMRELISELEHRLQGSMMDLLQGVDGIIKRIENMTLKKPKTFHKNQRRVFRAPDLKGMLDMFRELTDA |  | 2 |  |

Second part, led by results:

| binding result [3] | Binder | stoichiometry N [2] | also measured |
| --- | --- | --- | --- |
| binds | RhT5 88–296 EK/RD Q203A (domain or fragment, Rhesus macaque, UniProt Q0PF16 88-296, looked up) PEEGQKVDHCARHGEKLLLFCQEDSKVICWLCKDSQEHRGHHTFLMEEVAQEYHVKLQTALEMLRQKQQEAEKLEADIREEKASWKIQIDYDKTNVSADFEQLREILDWEESNELANLEKEEEDILKSLTKSETEMVQQTQYMRELISELEHRLQGSMMDLLQGVDGIIKRIENMTLKKPKTFHKNQRRVFRAPDLKGMLDMFRELTDA | 2 |  |
| binds | RhT5 88–296 EK/RD Q189A (domain or fragment, Rhesus macaque, UniProt Q0PF16 88-296, looked up) PEEGQKVDHCARHGEKLLLFCQEDSKVICWLCKDSQEHRGHHTFLMEEVAQEYHVKLQTALEMLRQKQQEAEKLEADIREEKASWKIQIDYDKTNVSADFEALREILDWEESNELQNLEKEEEDILKSLTKSETEMVQQTQYMRELISELEHRLQGSMMDLLQGVDGIIKRIENMTLKKPKTFHKNQRRVFRAPDLKGMLDMFRELTDA | 2 |  |
